T1: Recombinant P-selectin (R&D Systems) (human, UniProt P16109 42-771)
T1 construct: extracellular domain; also called recombinant human P-selectin; recombinant truncated form of P-selectin
T1 sequence (looked up): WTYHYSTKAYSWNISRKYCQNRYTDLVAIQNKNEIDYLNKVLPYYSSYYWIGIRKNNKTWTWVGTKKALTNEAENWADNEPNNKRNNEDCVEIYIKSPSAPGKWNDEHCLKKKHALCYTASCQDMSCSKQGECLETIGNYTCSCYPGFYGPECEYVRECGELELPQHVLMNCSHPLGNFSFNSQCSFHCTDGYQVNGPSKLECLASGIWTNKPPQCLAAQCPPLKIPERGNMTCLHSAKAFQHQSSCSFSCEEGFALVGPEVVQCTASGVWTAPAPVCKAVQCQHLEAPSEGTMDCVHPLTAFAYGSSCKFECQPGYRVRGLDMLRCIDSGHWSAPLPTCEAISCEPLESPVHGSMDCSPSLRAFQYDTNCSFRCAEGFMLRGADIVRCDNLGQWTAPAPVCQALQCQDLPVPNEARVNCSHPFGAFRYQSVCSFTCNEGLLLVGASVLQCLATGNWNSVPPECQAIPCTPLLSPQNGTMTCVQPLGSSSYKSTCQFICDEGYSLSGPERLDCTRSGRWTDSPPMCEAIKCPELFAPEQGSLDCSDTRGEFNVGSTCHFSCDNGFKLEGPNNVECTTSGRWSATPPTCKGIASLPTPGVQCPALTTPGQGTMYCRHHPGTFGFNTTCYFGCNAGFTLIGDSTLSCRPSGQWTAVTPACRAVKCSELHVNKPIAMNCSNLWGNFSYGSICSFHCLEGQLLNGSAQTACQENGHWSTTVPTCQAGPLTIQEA


Biological target: T1, Recombinant P-selectin (R&D Systems)
Assay: SPR, BIACORE 2000; antibody captured by anti-human Fcγ, recombinant P-selectin 0-50 nM injected; 1:1 Langmuir fit
Procedure: Recombinant P-selectin (R&D Systems) was added in various concentrations between 0-50 nM. Association was measured by P-selectin-injection for 120 seconds; dissociation was measured by washing the chip surface with buffer for 180 seconds. Using Biaevaluation Software the kinetic data were fitted to a 1:1 Langmuir binding model of P-selectin to the presented monoclonal antibody.

Binder | Ka [M⁻¹] | Kd [nM] | koff [s⁻¹] | kon [M⁻¹ s⁻¹]
HuMab 003 (antibody, V domains shown, Human monoclonal antibody; also called antibody 003; LC 1004-003) VH: QVQLVESGGGVVQPGRSLRLSCAASGFTFSSYGMHWVRQAPGEGLEWVAVIWYDGTFKYYADSVKGRFTISRDNSKNTLSLLMNSLRAEDTAVYYCTRGGYYGSGSSFDYYYYGMDVWGQGTTVTVSS VL: DIQMTQSPSSLSASVGDRVTITCRASQGISSWLAWYQQKPEKAPKSLIYAASSLQSGVPSRFSGSGSGTDFTLTISSLQPEDFATYYCQQYHSYPLTFGGGTKVEIK | 2.27e+09 | 0.441 | 0.000291 | 660000
HuMab 005 (antibody, V domains shown, Human monoclonal antibody; also called antibody 005) VH: QVQLVESGGGVVQPGRSLRLSCAASGFTFSSYGMHWVRQAPGEGLEWVAVIWYDGTFKYYADSVKGRFTISRDNSKNTLSLLMNSLRAEDTAVYYCTRGGYYGSGSSFDYYYYGMDVWGQGTTVTVSS VL: EIVLTQSPATLSLSPGERATLSCRASQSVSSYLAWYQQKPGQAPRLLIYDASNRATGIPARFSGSGSGTDFTLTISSLEPEDFAVYYCQQRSNWPPVTFGQGTRLEIK | 2.91e+09 | 0.343 | 0.000289 | 842000
HuMab 001 (antibody of cell line hu-Mab<P-selectin>LC 1004-001, DSM ACC2640) (antibody, V domains shown, Human monoclonal antibody from transgenic mice; kappa light and gamma1 heavy chains by the cloning section; also called antibody 001; HuMab 1004-001) VH: EVQLVESGGGLVQPGGSLRLSCAASGFTFSSYDMHWVRQATGKGLEWVSGITTAGDTYYPGSVKGRFTISRENAKNSLYLQMNSLRAGDTAVYYCARGRISMDRGVKNNWFDPWGQGTLVTVSS VL: EIVLTQSPATLSLSPGERATLSCRASQSVSSYLAWYQQKPGQAPRLLIYDASNRATGIPARFSGSGSGTDFTLTISSLEPEDFAVYYCQQRNNWPLTFGGGTKVEIK | 1.45e+09 | 0.689 | 0.000419 | 608000
HuMab 017 (antibody of cell line hu-Mab<P-selectin>LC 1004-017, DSM ACC2642) (antibody, V domains shown, Human monoclonal antibody; also called antibody 017) VH: QPQLVQSGAEVKKPGASVKVSCKVSGNTLTELSMHWVRQAPGKGLEWMGGFDPENGEAIYAQKFQGRVTMTADTSTDTAYMDLSSLRSEDTAVYYCATDLAGGSDFYYYGLDVWGQGTTVTVSS VL: AIQLTQSPSSLSASVGDRVTITCRASQGISSALAWYQQKPGKAPKLLIYDASSLESGVPSRFSGSGSGTDFTLTISSLQPEDFATYYCQQFNSYPYTFGQGTKLEIK | 5.59e+10 | 0.0179 | 1.39e-05 | 779000
